Reference: IntAct's records for PubMed 17496150

B1: "Peptide-N(4)-(N-acetyl-beta-glucosaminyl)asparagine amidase" (Mus musculus), Q9JI78 (parent)
chain: MASATLGSSSSSASPAVAELCQNTPETFLEASKLLLTYADNILRNPSDEKYRSIRIGNTAFSTRLLPVRGAVECLFEMGFEEGETHLIFPKKASVEQLQKIRDLIAIERSSRLDGSSKKVQFSQHPAAAKLPLEQSEDPAGLIRHSGNQTGQLPSLPSAPMVVGDSTILKVLQSNIQHVQLYENPVLQEKALTCIPVSELKRKAQEKLFRARKLDKGTNVSDEDFLLLELLHWFKEEFFRWVNNIVCSKCGGETRSRDEALLPNDDELKWGAKNVENHYCDACQLSNRFPRYNNPEKLLETRCGRCGEWANCFTLCCRALGFEARYVWDYTDHVWTEVYSPSQQRWLHCDACEDVCDKPLLYEIGWGKKLSYIIAFSKDEVVDVTWRYSCKHDEVMSRRTKVKEELLRETINGLNKQRQLSLSESRRKELLQRIIVELVEFISPKTPRPGELGGRVSGSLAWRVARGETGLERKEILFIPSENEKISKQFHLRYDIVRDRYIRVSDNNINISGWENGVWKMESIFRKVEKDWNMVYLARKEGSSFAYISWKFECGSAGLKVDTVSIRTSSQSFESGSVRWKLRSETAQVNLLGDKNLRSYNDFSGATEVTLEAELSRGDGDVAWQHTQLFRQSLNDSGENGLEIIITFNDL

Variants of: B1
Settings: with tera_mouse Vcp

Row | Variant | effect of a mutation on the interaction
1 | R55E | disrupting interaction strength

Variants of: B1
Settings: with tera_mouse Vcp
Remark: another data set of the same source

Row | Variant | effect of a mutation on the interaction
2 | N58D | disrupting interaction strength
